The values that follow come from US20250387484A1 (US Dept. of Health and Human Services, published 2025).

The target in test [1] is T1, human CD25 on KIT-225 cells (human, UniProt P01589 22-272).
T1 construct: whole, on cells; also called hCD25; IL-2Rα
T1 sequence (looked up): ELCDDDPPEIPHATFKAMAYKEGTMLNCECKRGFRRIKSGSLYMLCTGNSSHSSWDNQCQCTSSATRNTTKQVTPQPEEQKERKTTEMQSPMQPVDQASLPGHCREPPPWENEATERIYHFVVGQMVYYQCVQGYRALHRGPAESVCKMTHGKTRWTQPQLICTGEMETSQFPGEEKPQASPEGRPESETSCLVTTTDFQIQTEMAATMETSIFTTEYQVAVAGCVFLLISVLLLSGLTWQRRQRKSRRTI
As to the kind of experiment: flow cytometry (FACS) on CD25-expressing KIT-225 cells, secondary antibody, MFI against antibody concentration. The procedure: KIT-225 cells were washed once with FACS buffer, counted, and resuspended at a concentration of 1×10⁶/mL in FACS buffer. To 5 mL (5×10⁶ total) of cells, 25 μL of viable dye (Thermo Fisher, L34974, equivalent to 1:200 dilution) was added and mixed well. After incubation at 4° C. for 30 minutes, cells were washed twice with FACS buffer (200×g, 5 minutes each). Cells were resuspended in 5 mL FACS buffer and 100 μL was added per well, followed by addition of 100 μL diluted antibody. The solution was mixed by pipetting up and down and then incubated at 4° C. for 60 minutes, after which cells were washed twice with FACS buffer (200×g, 5 minutes each). Cells were resuspended in 100 μL FACS buffer. Fifty μL of secondary antibody was diluted in 5 mL FACS buffer (equivalent to 1:100 dilution), and 100 μL was added to each well and mixed by pipetting up and down. Following incubation at 4° C. for 30 minutes, cells were washed twice with FACS buffer (200×g, 5 minutes each), and resuspended in approximately 250 μL FACS buffer. FACS analysis was performed with Attune Flow cytometer using tube reading module.
In general terms: Flow cytometry measures light scatter and fluorescence of single cells or particles in a stream.

In test [2] the target is T2, cynomolgus CD25 (cynomolgus, UniProt H6WS54 22-213).
T2 construct: Analyte in the SPR assay; also called CD25 (sIL-2 Receptor α)
T2 sequence: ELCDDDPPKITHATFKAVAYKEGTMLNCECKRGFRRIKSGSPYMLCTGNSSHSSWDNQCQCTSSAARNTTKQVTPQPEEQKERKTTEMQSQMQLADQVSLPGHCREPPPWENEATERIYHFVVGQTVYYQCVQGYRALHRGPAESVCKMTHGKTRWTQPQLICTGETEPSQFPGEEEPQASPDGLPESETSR
As to the kind of experiment: SPR, Biacore 8K, antibody captured on Protein A chip, cynomolgus CD25 as analyte, 25 C. The procedure: Running buffer was prepared by diluting one volume of 10× buffer with 9 volumes of degassed, filtered MilliQ water. Regeneration buffer (10 mM glycine) was prepared by dissolving glycine in MilliQ water and adjusting the pH to approximately 1.5-1.7. The assay was performed at 25° C. using HBS-EP+ as the running buffer. Antibodies were injected as capture on the Series S Sensor Chip Protein A. Antigens were diluted to multiple concentrations and injected over the surface of flow cell 1 and 2 as association phase, followed by injection of running buffer as dissociation phase.
All data were processed using the BIACORE™ 8K Evaluation software version 3.0. Flow cell 1 and blank injection of buffer in each cycle were used as double reference for Response Units (RU) subtraction. […] VH2+VL4 is a parental antibody (before affinity maturation).
On the technique in general: Surface plasmon resonance follows binding to a sensor surface in real time, without labels.

B1: antibody 14569 (antibody, human IgG4 S228P, kappa, V domains shown)
VH: EVQLVESGGGLVQPGGSLRLSCAASGYWFSSWGMSWVRQAPGKGLELVSTINGYGDTTYYPDSVKGRFTISRDNSKNTLYLQMNSLRAEDTAVYYCARDRDYSNSYYYAHDYWGQGTLVTVSS
VL: EIVLTQSPATLSLSPGERATLSCRASSYVSFMHWLQQKPGQAPRPWIYATMNLASGVPARFSGSGSGTDYTLTISSLEPEDFAVYYCQQWSSNPPAFGGGTKVEIKR
One may read the EC50 (read off the curve) as the concentration needed to bring the measured effect to its halfway point. Low values mean an effect from little substance, high ones a need for much substance. One may read the Kd as the concentration at which binding is half-saturated. A higher Kd goes with lower affinity. As a reminder, the koff is the first-order rate constant of dissociation. Read a high koff as fast dissociation. Broadly, the kon is the second-order rate constant of association. Higher therefore signals fast association. For B1, the “EC50 (read off the curve)” value in test [1] was about 0.5 µg/mL. In test [2], this molecule came in with a Kd of 18.5 nM, a koff of 0.000714 s⁻¹ and a kon of 38500 M⁻¹ s⁻¹.

B2: antibody 14564 (antibody, human IgG4 S228P, kappa, V domains shown)
VH: EVQLVESGGGLVQPGGSLRLSCAASGFTFSSWGMSWVRQAPGKGLELVSTINGYGDTTYYPDSVKGRFTISRDNSKNTLYLQMNSLRAEDTAVYYCARDRDYSNSYYYAHDYWGQGTLVTVSS
VL: EIVLTQSPATLSLSPGERATLSCRASSYVSFMHWLQQKPGQAPRPWIYATANLASGVPARFSGSGSGTDYTLTISSLEPEDFAVYYCQQWSSNPPAFGGGTKVEIKR
As to B2, the “EC50 (read off the curve)” value in test [1] is about 0.6 µg/mL. In addition, in test [2], the Kd came to 17.4 nM, the off-rate (koff) came to 0.000744 s⁻¹ and the kon was 42600 M⁻¹ s⁻¹.

B3: antibody 14572 (antibody, human IgG4 S228P, kappa, V domains shown)
VH: EVQLVESGGGLVQPGGSLRLSCAASGYWFSSYGMSWVRQAPGKGLELVSTINGYGDTTYYPDSVKGRFTISRDNSKNTLYLQMNSLRAEDTAVYYCARDRDYTNSYYYAHDYWGQGTLVTVSS
VL: EIVLTQSPATLSLSPGERATLSCRASSYVSFMHWLQQKPGQAPRPWIYATMNLASGVPARFSGSGSGTDYTLTISSLEPEDFAVYYCQQWSSNPPAFGGGTKVEIKR
As to B3, the “EC50 (read off the curve)” value in test [1] was about 0.4 µg/mL. In test [2], this molecule gave a Kd of 19.6 nM, a koff of 0.000679 s⁻¹ and a kon of 34700 M⁻¹ s⁻¹.
